Drawing on EP1828247B1, this text covers OD 492nm for one substance.

The assay has as its target West Nile virus strain USA99b (strain 385-99), whole virus (West Nile virus strain 385-99 (USA99b)). Put plainly: ELISA on irradiated WNV; antibody at 20.000 µg/ml.

As to “anti-rabies virus antibody (negative control)”, the OD 492nm was found to be 0.051 OD 492nm.
